The values that follow are results of earlier work, collected in patent US9687493B2, “Use of NK-1 receptor antagonists for treating hypomagnesemia, neurogenic inflammation, and cardiac dysfunction associated with EGFR-blocking drugs” (THE GEORGE WASHINGTON UNIVERSITY, priority 2014, dated 2017).

The conditions of this data set: patients with colorectal cancer, monoclonal antibodies targeting the EGFR; cited from earlier work.

As to panitumumab, the “hypomagnesemia in treated patients” value is given as “pronounced hypomagnesemia”.
